Consider four molecules from article PMC5602898, “Ornithine uptake and the modulation of drug sensitivity in Trypanosoma brucei” (FASEB journal : official publication of the Federation of …, 2017).

Series [1] has as its system N[C@@H](Cc1c[nH]cn1)C(=O)O. Kind of series: cells, lysate or membranes. The settings on record: L-[3H]histidine, labelled compound, 50 mM potassium phosphate pH 5.5, 0.6 M sorbitol, 100 mM glucose preincubation, 30 °C, empty-vector uptake subtracted.
The next series has as its target T1, TbAAT2-4 (Trypanosoma brucei, UniProt Q57Y06).
T1 construct: gene Tb04.1D20.560; full-length ORF amplified from T. brucei 427 genomic DNA, vector pDR197, expressed in Saccharomyces cerevisiae 22Δ8AA; no tag told
Kind of series: competition of radiolabelled histidine uptake in S. cerevisiae […]Δ8AA. Format: cell-based. The note with it: 200 μM histidine, 2 mM competitor, pH 5.5, 30 °C.

Substrate in series [2]: NCCC[C@H](N)C(=O)O
The experiment in a line: cells, lysate or membranes. The note with it: L-[3H]ornithine, labelled compound, 50 mM potassium phosphate pH 5.5, 0.6 M sorbitol, 100 mM glucose preincubation, 30 °C, empty-vector uptake subtracted.

T1 sequence (Q57Y06 entry or part of it): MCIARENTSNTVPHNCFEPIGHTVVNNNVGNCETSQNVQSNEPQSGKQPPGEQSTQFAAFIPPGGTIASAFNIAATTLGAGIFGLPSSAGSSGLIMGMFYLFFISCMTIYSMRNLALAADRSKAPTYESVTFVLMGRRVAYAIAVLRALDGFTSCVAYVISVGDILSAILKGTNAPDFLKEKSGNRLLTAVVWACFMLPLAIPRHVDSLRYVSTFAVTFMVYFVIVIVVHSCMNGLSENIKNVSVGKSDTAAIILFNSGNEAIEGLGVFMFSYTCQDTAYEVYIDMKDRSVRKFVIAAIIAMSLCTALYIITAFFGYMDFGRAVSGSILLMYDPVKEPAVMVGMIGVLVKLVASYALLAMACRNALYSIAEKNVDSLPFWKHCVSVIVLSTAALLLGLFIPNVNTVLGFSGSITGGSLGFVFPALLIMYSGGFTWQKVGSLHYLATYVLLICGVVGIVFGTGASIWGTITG

On to “TbAAT2-4 (Trypanosoma brucei brucei TREU927)”, for which the Michaelis-Menten constant (Km) in series [1] came to 20.5 ± 8.6 µM.
Take `N=C(N)NCCC[C@H](N)C(=O)O` [arginine]: at TbAAT2-4, the “% of control uptake at 2 mM” value is “TbAAT2-4-mediated histidine uptake was inhibited by several amino acids, including arginine and lysine”.
On to `NCCCC[C@H](N)C(=O)O` [lysine], for which the “% of control uptake at 2 mM” value at TbAAT2-4 (also supports yeast growth on lysine) is “TbAAT2-4-mediated histidine uptake was inhibited by several amino acids, including arginine and lysine”.

B1: TbAAT10-1 (Trypanosoma brucei brucei TREU927) (protein)
chain: MSNVRGNITPAVVYASNEPNALNASDDGIKNYEAYEDIQSNNSESKFAPFSKLSKKIAAVIPPGGIFASAFNIAATTLGAGIFGLPSTANGSGLVMGILYLVIINCMTIYSMYNLALAAERSKALTYEGVTFVVLGRWAAYAIAAVRAFDGFTSCIAYVISVGDIFSSILKGTDAPEFWKGNTGNRLLTALLWLCCMLPLVIPRHVDSLRHVSTCAVTFMVYFVIVIVVHSCLNGLPENIKDVSVGKSDTAAIILFNSGNAAVEGLGVFMFSYTCQDTAYEIYMDMKDRSVRKFVISSAIAMCMCTVLYILTVFFGYMDFGRDVTGSILLMYDPVNEPAVMVGMIGVLVKLIASYALLAMACRNALYSIAGKNADVLPFWKHCASVVTLSVAALVLGLFIPKVNTVLGFAGSITGGSLGYIFPSLLLMYSGGFTWQRVGPFHYLVAYGLLISGVVGVVFGTGATIWGTIVG
For B1, in series [2], the Michaelis constant (Km) was determined as 4.3 ± 1.5 µM.
